Test results as given in patent publication US20120264212.

System: T1, Dab2 N-terminal phosphotyrosine binding (N-PTB) domain, residues 1-241 of human Disabled-2, wild type
T1 sequence: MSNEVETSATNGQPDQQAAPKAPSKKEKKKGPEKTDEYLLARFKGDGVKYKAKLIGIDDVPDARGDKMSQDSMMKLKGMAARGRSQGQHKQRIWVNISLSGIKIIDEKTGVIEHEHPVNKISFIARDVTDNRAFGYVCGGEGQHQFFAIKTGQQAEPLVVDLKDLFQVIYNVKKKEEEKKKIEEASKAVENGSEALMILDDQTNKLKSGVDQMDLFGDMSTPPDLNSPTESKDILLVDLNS

thrombin
thrombin limited proteolysis (SDS-PAGE): thrombin cleaved the N-PTB domain leaving a ˜25 kDa protease-resistant product
